According to the supplement of paper PMC9170038:

System: K4 kissing-loop RNA reporter
Experiment: apparent KD of K4 kissing-loop reporter; higher = weaker reporter binding
Conditions: Eterna round: R107
Method: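 RNA-MaP round R107: designed RNA switches with theophylline, tryptophan, arginine or FMN aptamers are transcribed on-chip within common flanks. They are titrated with a labelled K4 kissing-loop RNA reporter in RNA-MaP buffer (100 mM Tris pH 7.5, 80 mM KCl, 4 mM MgCl2), without ligand or with the indicated ligand. Median apparent KD per design.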

[1] = input ligand: theophylline 20 uM
[2] = input ligand: tryptophan 2.4 mM
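Further: bound reporter read as fluorescence of individual clusters on recovered sequencing chips by microscopy, with normalized cluster intensities fitted with a binding model.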

Sequence | apparent KD of K4 kissing-loop reporter (input ligand: FMN 200 uM) [nM] | apparent KD of K4 kissing-loop reporter (input ligand: arginine 13.2 mM) [nM] | apparent KD of K4 kissing-loop reporter (input ligand: none) [nM] | apparent KD of K4 kissing-loop reporter [1] [nM] | apparent KD of K4 kissing-loop reporter [2] [nM]
UAAUAUAAUCUGUCGUUUACAAUAUUUAGUCAGGAUAUCGUAUAUUCGAGAAGGGACACUAUCUAGUGAUGUUAGAUAUUUCUUU [JR_ExcFMNA_Sub014] | 47.9 | 78.1 | 55.9 | 67 | 51.9
AGGUCCGAGCCUGUAAAGGCUCGGACCUGUUAGGAUAUGACGUUAUUCAGAAGGGAUGGGUGGAGUGAUGUUCCACCCGCAAGGG [#2 Same State - FMN A Attempt #5 (HarryS)] | 107 | 103 | 111 | 116 | 104
GAGAAUAACGGAAGGAGCGAGUAAUGGAGUGAUGUUCCAAUCAAUAAAACACAAUAAAAUACUCAGGUAGGUCGCCGUAGUAGUU [Exclusion Argiie B GF 12] | 244 | 339 | 323 | 330 | 215
UGGACCAGGAGUGAUGUUCCAAAAUGUGAUACCAGCCACGAAAGUGGCCCUUGGCAGCACUGCCAGGACGAAAACGUCCGGUCCU [#SwitchBubble 11 #StaticStem #K4Early] | 285 | 191 | 278 | 268 | 154
AAGGCAGUUCGAGGAUAUCACAUACACUCCUUGAAUCAAGGAGUGAUGUUCCUUGAAGUGUAUGCAUGAGAAGGCGAAUUGCCUU [FMN B SS t5] | 113 | 103 | 109 | 103 | 101
UAGAUGUUGUAAGAUAUUGAUAGUCGGGAAGGAGCGCUCACAAUAGCAGGUAGGUCGCCCGACAGUGUUAGGAGUGAUGUUCCUU [7.)] | 92.9 | 119 | 97.9 | 121 | 83.5
AAGAAGGUCAAAGACCUUCGUGCACCUGAUACCAGUCGCGAAAGCGACCCUUGGCAGCAGGGCAGUGAUGUUGCCAAGUGCACAA [Omei KL Theo A SS A v1] | 782 | 650 | 898 | 400 | 823
GAGAUAGCGACGGCCGCCACUAGUGAUGUUAGUGCGGGUAGAUAGAUACUUGAACAGAAAUGACGUAGGACCGGGUCAGAUAGAG [#02 K4 Tryptophan B Exclusion] | 162 | 94.5 | 125 | 140 | 149
GUCUAGCUAGCAGGAUAUAGCUGGUAGUGAUGUUACCACUAGAACUCUGCGGAAACGCAGAGUAUCCUAGAAGGGCUAGCUAGAC | 95 | 65 | 75.4 | 63.9 | 66.8
CGAGUGAUGUUCGUUCGUUUAUUUGGGUGACAGGAUAUGCGGAAACGCAGAAGGGUCACCUUCGGGUUACCCGAAUUAACGUUAU [#09 K4 FMN A Exclusion] | 724 | 520 | 688 | 587 | 717
AAGAGGUAGGCGGCCGCCACUAGUUGUGAACACAUACGAGCCAGUGAUGUUGGUAUUGUGGGCGGUAGGACCGGGCCUACCUGAA [Exclusion - Tryptophan B (Freestyle 19)] | 319 | 336 | 358 | 322 | 281
ACUUGCACAAAGUCGUCAACCGGUGAAUCAAAGGAUAUUAAUUCACUAAGAAGGUUGAGCCGAGUGAUGUUCGACUGUAAGUCCC [theeternabot_exclusion_KL_FMN_A_34] | 415 | 382 | 551 | 506 | 348
UGAGUUUGAGUGAUGUUCAGGCAUUGGUACGAGGAUAUCGAGGAGUUGAGAAGGCGUACUGCUCAACUUUGUAUGAAUACAUACA [FMN A Ex t2b] | 259 | 73.4 | 106 | 117 | 103
AGUGUUAGGUUAGAUACCAGCCGUCUGUGGAUAAUCCUCAGACCGCCAGUGAUGUUGGCAGGCCCUUGGCAGCUAACAGGACAGA [Mavebius] | 275 | 268 | 272 | 155 | 237
CACGAUGAAUUCUCUAGGAGUGAUGUUUUUCGAGGACCGGUACGGCCGCCACUCGGACGACGAGCGUGGUAGCGGCGUGAAGACU [zamullin] | 365 | 276 | 625 | 459 | 452
AAUACAGUGUCGGCCGCCACUGUAACAUGCCAUGAGACAUGAGACAUGAGUGAUGUUCAUGUAGACAGGACCGGGACUCAUGUAU [KL-SSTryp-B3 #analogue] | 450 | 373 | 455 | 370 | 227
AACUGUCAAGGCCGACAUUACUGAGGUGAUACCAGCAUCGAAAGAUGCCCUUGGCAGCACCAACUUGCAGUGAUGUUGCAAGUAA [BrourdMod 14 - Jieux - Exclusion - Theophylline A] | 191 | 158 | 170 | 198 | 184
GGGUGGCAGGCGGCCGCCACUCUGAGGGUCCACAGUGAUGUUGUGGGCGCGUAAGCGUCUUCAUAGAGGACCGGGUUUGUUGUUC [Same State Tryptophan B GF 24] | 422 | 308 | 454 | 403 | 338
GAUACGUCAGUGAUGUUGAUGUAUUACACAGAGGAUAUCGUAAUGACGAGAAGGCUGAGCCAUCUAGAGAUACGUAAGACGUAUC [FMN A SS t5] | 154 | 196 | 184 | 188 | 205
CGAGUGAUGUUCGUUCGUUUAUUUCGUUGACAGGAUAUGCGGAAACGCAGAAGGGUCACCUUUGAGUUAACGGAAUUUACGUUAU [Ex FMN A 27] | 614 | 487 | 587 | 552 | 546
AGUGAUAUAUGAGGAUAUGGGUUGGUUAAUGAGUUAGUUUUAGUGUUGUUUGGUUAGUGAUGUUAUUUAGAAGGCGUGAGUGAUG [sffdsmullin] | 99.6 | 88.3 | 81.8 | 95.8 | 71.8
CCAUCGCUAUUCGAUACCAGUCAGGAGGUCUGUGACCUCCUAAUGGAGUGAUGUUCCUUAGACCCUUGGCAGCGAAUAGUGAUGG [#02 K4 Theophylline B Same State] | 203 | 196 | 221 | 141 | 202

Sequence | apparent KD of K4 kissing-loop reporter (input ligand: FMN 200 uM) [nM] | apparent KD of K4 kissing-loop reporter (input ligand: arginine 13.2 mM) [nM] | apparent KD of K4 kissing-loop reporter (input ligand: none) [nM] | apparent KD of K4 kissing-loop reporter [1] [nM] | apparent KD of K4 kissing-loop reporter [2] [nM]
UGACAUUGCUCAGAUACCAGACUUGAGGAACACCCAAGUGCCAAAUACGUACAAAUAAAAGUCCCUUGGCAGCUGAGCAAUGUCU [TheoBX 12] | 58.3 | 23.5 | 48.5 | 148 | 38.5
AGAGAUAUAUGAGGAUAUGGGUUAGUUAAUGAGUUAGUUUUAGUGUUGUUUGGUUAGUGAUGUUAUUUAGAAGGCGUGAGUGAUG [cqqbmullin] | 98.4 | 60.8 | 70 | 112 | 66.2
AAGUCACAGGCAGGAUAUGCUUAGUAUUAAGGCCAUAUAUACGUAUAGAGUGAUGUUUUGUACCAGGCAGAAGGGCUACAUCCGU [FMN B Excl V4 (+U)] | 930 | 440 | 656 | 645 | 463
UUUGGAAGCGGUGUUGAUUAGGGAGCGGAAGGAGCGCCGAUUAUGGCAGGUAGGUCGCCGGAAUGUAGUGAUGUUGCAUAGAGGU [ExArgA.X] | 185 | 130 | 240 | 273 | 128
GGCAUGCGUAGAGUGAUGUUCUAAGAUGAUACCAGUGCGGAAACGCACCCUUGGCAGCAUCUGACUGGCAUGCCGGCGAAAGCCU | 871 | 811 | 1240 | 770 | 982
GAGGUACAGGCGGCCGCCACUAGUGAUGUUAGUGAUAAAAGAUAUAGUAAAUAUCGGCAUGUAGAUAGGACCGGGCCUGAUGGAG [ptvcmullin] | 234 | 214 | 234 | 234 | 209
UGGACCAAGGAGUGAUGUUCCAUAUGUGAUACCAGCCACGAAAGUGGCCCUUGGCAGCACUGCCAGGACGAAAACGUCCGGUCCU [#SwitchBubble 13 #StaticStem #K4Early] | 390 | 346 | 503 | 477 | 321
CUAGGCCCUCGGCGGGACAUUGCGUGGGAAGGAGCGCAGAUAACUGCAGGUAGGUCGCCCAGUGAUGUUGGGCGAAUAUUGGUCA [Esinabige] | 102 | 98.3 | 124 | 120 | 110
UAGAGGAGACUCUAAUUCCUUAAGUCCGAAGGAGCGACCCAAUGGUCAGGUAGGUCGCGGACAAUCCUAGUGAUGUUAGGAUCUG [Arg A SS t5a] | 141 | 136 | 160 | 170 | 129
GAACGGCGGGCGGCCGCCACUGGUAUACGAGUGAUGUUCGGAUAUACGUGAUGUAAGGUAAUUAUCAGGACCGGGUCAGAGCCGG [#16 K4 Tryptophan B Same State] | 394 | 183 | 303 | 341 | 167
UUUCUACCGGGAAGGAGCGUGAAUGAUAAUGGAUAUAGUGAUGUUAUAUAUACGAACGAAUCGCAGGUAGGUCGCCCGGAUCACU [SSArgB.U] | 655 | 859 | 1470 | 1480 | 1090
UGUCAUUGGUCGGCCGCCACUAUAAUAAAAGAGUGAUGUUCUAAAAGACGGACAAAAGUCUGUCAUAGGACCGGGACCGAUGACU [TrypBS 25 #SwitchBubble #StaticStem] | 822 | 430 | 589 | 131 | 616
GCCGUAGAUGGAAGGAGCGUGGUUAAUGUAAGUGAUGUUUACGAGGUUAACAAUUGACCGCCACAGGUAGGUCGCCAUCUACGGC | 84.6 | 65.9 | 74 | 70.5 | 70.5
GGUGCUGGCCAGUGAUGUUGGCGAAUACUGAAGGAUAUGAUAGGCGUCAGAAGGUCAAGAGUAAUAUCUAGAAUGAAUAGUGAUA [theeternabot_sameState_KL_FMN_A_38] | 296 | 289 | 329 | 439 | 285
CUCGAGUGAUGUUCGAUUAUGUAUACAGAUACCAGUGAAUUUUAACACCCUUGGCAGCUGGUAGAAUCUUUGUAAUUUUAACUAG [JR_ExcTheophyA_Sub002] | 162 | 253 | 180 | 230 | 134
GACUACCGGGCGGCCGCCACUGGGCUCCGAGUGAUGUUCGGAAAGACUCAUACACUGCUGUCAGACAGGACCGGGCCAAGGCGCA [theeternabot_sameState_KL_Trp_B_5] | 145 | 170 | 172 | 201 | 151
GUGCAGUGAUGUUGCACGAGGAAAGACGAUACCAGCCGUAAAUAAGGCCCUUGGCAGCGUAGGCUAGCAUAAAGUACGCUAGUCC [Enarines] | 110 | 105 | 109 | 101 | 88.4
GCGCGUGUUAAAGGAUAUAGCAGGUGAUACAAGAAAGUGAGUGAUGUUUAUGUAGAUGAUGAUAUGUUAGAAGGUUAACAAGCGC [abcdefghijklmnopq] | 778 | 606 | 847 | 739 | 605
AGGUCACGAGGAAGGAGCGCCCUGACAGGUUGCUGCCGUGGGCAGUGAUGUUGCUCAGUCCGGCAGGUAGGUCGCCUCGUGACCU | 151 | 174 | 147 | 111 | 148
AUUUAGACGAGUGAUGUUCGUGUUAUUACAGAGGAUAUGCGUAAUUGCAGAAGGCUGUAUUUAUAUAUGUUAUGUAGUUUUAAAA [whbob_Ex_FMNA__2th184] | 87.3 | 108 | 84.8 | 94.8 | 74.1
UAUAAUUCGGCGGCCGCCACUGACCAUAGCCUUCGAUGGCCAGUGAUGUUGGCCUCUGGCUCUAACAGGACCGGGCCGAAUUGCG [Aririmaus] | 228 | 179 | 260 | 277 | 135
